B1: CPEB3 Ribozyme (parent)
chain: GGGGGCCACAGCAGAAGCGUUCACGUCGCGGCCCCUGUCAGAUUCUGGUGAAUCUGCGAAUUCUGCUGU

Variants of: B1
Test: self-cleavage, relative activity (ratio to wild type); higher = more cleavage; co-transcriptional

Variant | self-cleavage
GGGGGCCACAGAAGAGGCGUUCACGUCGCGGCCCCUGUCAGAUUCUGGUGAAUCUGCGAAUUCUGCUGU | 0.385
GGGGGCCACAGAAGACGCGUUCACGUCGCGGCCCCUGUCAGAUUCUGGUGAAUCUGCGAAUUCUGCUGU | 0.128
GGGGGCCACAUCAGAAGCGUUCACGUCGCGGCCCCUGUCAGAUUCUGGUGAAUCGGCGAAUUCUGCUGU | 0.225
GGGGGCCACAUCAGAAGCGUUCACGUCGCGGCCCCUGUCAGAUUCUGGUGAAUCUGCGAAUUCUGCUGA | 0.958
GGGGGCCACAUCAGAAGCGUUCACGUCGCGGCCCCUGUCAGAUUCUGGUGAAUCUGCGAAUUCUGCUGG | 0.968
GGGGGCCACAUCAGAAGCGUUCACGUCGCGGCCCCUGUCAGAUUCUGGUGAAUCUGCGAAAUCUGCUGU | 0.412
GGGGGCCACAUCAGAAGCGUUCACGUCGCGGCCCCUGUCAGAUUCUGGUGAAUCUGCGAAGUCUGCUGU | 0.348
GGGGGCCACAUCAGAAGCGUUCACGUCGCGGCCCCUGUCAGAUUCUGGUGAAUCUGCGAAUUCAGCUGU | 0.467
GGGGGCCACAUCAGAAGCGUUCACGUCGCGGCCCCUGUCAGAUUCUGGUGAAUCUGCGAAUGCUGCUGU | 0.381
GGGGGCCACAUCAGAAGCGUUCACGUCGCGGCCCCUGUCAGAUUCUGGUGAAUCUGCGAAUCCUGCUGU | 0.365
GGGGGCCACAUCAGAAGCGUUCACGUCGCGGCCCCUGUCAGAUUCUGGUGAAUCUGCGAAUACUGCUGU | 0.38
GGGGGCCACAUCAGAAGCGUUCACGUCGCGGCCCCUGUCAGAUUCUGGAGAAUCUGCGAAUUCUGCUGU | 0.941
GGGGGCCACAUCAGAAGCGUUCACGUCGCGGCCCCUGUCAGAUUCUGGCGAAUCUGCGAAUUCUGCUGU | 0.847
GGGGGCCACAUCAGAAGCGUUCACGUCGCGGCCCCUGUCAGAUUCUGGGGAAUCUGCGAAUUCUGCUGU | 0.98
GGGGGCCACAUCAGAAGCGUUCACGUCGCGGCCCCGGUCAGAUUCUGGUGAAUCUGCGAAUUCUGCUGU | 0.167
GGGGGCCACAUCAGAAGCGUUCACGUCGCGGCCCCCGUCAGAUUCUGGUGAAUCUGCGAAUUCUGCUGU | 0.59
GGGGGCCACAGACGAAGCGUUCACGUCGCGGCCCCUGUCAGAUUCUGGUGAAUCUGCGAAUUCUGCUGU | 0.199
GGGGGCCACAGAGGAAGCGUUCACGUCGCGGCCCCUGUCAGAUUCUGGUGAAUCUGCGAAUUCUGCUGU | 0.735
GGGGGCCACAUCAGAAGCGUUCACGUCGCGGCCCCUGCCAGAUUCUGGUGAAUCUGCGAAUUCUGCUGU | 0.756
GGGGGCCACAUCAGAAGCGUUCACGUCGCGGCCCCUGUCAGAUUCCGGUGAAUCUGCGAAUUCUGCUGU | 0.79

Variant | self-cleavage
GGGGGCCACAUCAGAAGCGUUCACGUCGCGGCCCCUGUCAGAUUCGGGUGAAUCUGCGAAUUCUGCUGU | 0.901
GGGGGCCACAUCAGAAGCGUUCACGUCGCGGCCCCUGUCAGAUUCAGGUGAAUCUGCGAAUUCUGCUGU | 0.864
GGGGGCCACAUCAGAAGCGUUCACGUCGCGGCCCCUGUCAGAUUCUGGUGAAUCUGCGAAUUCUGCCGU | 0.96
GGGGGCCACAUCAGAAGCGUUCACGUCGCGGCCCCUGUCAGAUUCUGGUGAAUCUGCGAAUUCUGCGGU | 0.949
GGGGGCCACAUCAGAAGCGUUCACGUCGCGGCCCCUGUCAGAUUCUGGUGAAUCUGCGAAUUCUGCAGU | 0.913
GGGGGCCACAUCAGAAGCGUUCACGUCGCGGCCCCUGUCAGAGUCUGGUGAAUCUGCGAAUUCUGCUGU | 0.302
GGGGGCCACAUCAGAAGCGUUCACGUCGCGGCCCCUGUCAGAAUCUGGUGAAUCUGCGAAUUCUGCUGU | 0.392
GGGGGCCACAGAAGAAGCGUUCGCGUCGCGGCCCCUGUCAGAUUCUGGUGAAUCUGCGAAUUCUGCUGU | 0.42
GGGGGCCACAGAAGAAGCGUUCUCGUCGCGGCCCCUGUCAGAUUCUGGUGAAUCUGCGAAUUCUGCUGU | 0.742
GGGGGCCACAUCAGAAGCGUUCACGUCGCGGCCCCUGUCAGAUACUGGUGAAUCUGCGAAUUCUGCUGU | 0.677
GGGGGCCACAUCAGAAGCGUUCACGUCGCGGCCCCUGUCAGAUCCUGGUGAAUCUGCGAAUUCUGCUGU | 0.539
GGGGGCCACAUCAGAAGCGUUCACGUCGCGGCCCCUGUCAGAUGCUGGUGAAUCUGCGAAUUCUGCUGU | 0.734
GGGGGCCACAUCAGAAGCGUUCACGCCGCGGCCCCUGUCAGAUUCUGGUGAAUCUGCGAAUUCUGCUGU | 0.712
GGGGGCCACAUCAGAAGCGUUCACGACGCGGCCCCUGUCAGAUUCUGGUGAAUCUGCGAAUUCUGCUGU | 0.552
GGGGGCCACAUCAGAAGCGUUCACGUCGCGGCCCCUGUCAGAUUCUGGUGAACCUGCGAAUUCUGCUGU | 0.329
GGGGGCCACAUCAGAAGCGUUCACGUCGCGGCCCCUGUCAGAUUCUGGUGAAGCUGCGAAUUCUGCUGU | 0.487
GGGGGCCACAGAAGCAGCGUUCACGUCGCGGCCCCUGUCAGAUUCUGGUGAAUCUGCGAAUUCUGCUGU | 0.274
GGGGGCCACAGAAGUAGCGUUCACGUCGCGGCCCCUGUCAGAUUCUGGUGAAUCUGCGAAUUCUGCUGU | 0.106
GGGGGCCACAGAAGGAGCGUUCACGUCGCGGCCCCUGUCAGAUUCUGGUGAAUCUGCGAAUUCUGCUGU | 0.514

— the RNAGym collection of RNA variant scans (doi:10.7554/elife.80360)
